According to patent publication US20150376264A1:
Several values for one entry are separate records, joined by “and”; a condition that tells them apart may be missing. Identical values can stand only once. Like-named read-outs stand apart in the source and are kept apart here. One block for each substance: values may come before it.

Experiments:
Experiment in all cases: cell-based or functional assay
relaxin receptor (LGR7) [1] = biological target: relaxin receptor (LGR7)
relaxin receptor (LGR7) [2] = biological target: relaxin receptor (LGR7); remark: listed apart in the source
Leptin receptor = biological target: Leptin receptor

- Fluorescence reading (luciferase assay) at 0.00035 uM (relaxin receptor (LGR7) [1]): 14600
- Fluorescence reading (luciferase assay) at 0.003153 uM (relaxin receptor (LGR7) [1]): 24500
- Fluorescence reading (luciferase assay) at 0.00946 uM (relaxin receptor (LGR7) [1]): 30200 and 24900 and 28500
- Fluorescence reading (luciferase assay) at 0.000000481 uM (relaxin receptor (LGR7) [2]): 1440 and 480 and 560
- Fluorescence reading (luciferase assay) at 0.00000144 uM (relaxin receptor (LGR7) [2]): 2880 and 2160 and 1280
- Fluorescence reading (luciferase assay) at 0.00000433 uM (relaxin receptor (LGR7) [2]): 4400 and 2400
- Fluorescence reading (luciferase assay) at 0.000013 uM (relaxin receptor (LGR7) [2]): 10800 and 8960 and 9840
- Fluorescence reading (luciferase assay) at 0.0000389 uM (relaxin receptor (LGR7) [2]): 12100 and 7120 and 12800
- Fluorescence reading (luciferase assay) at 0.000117 uM (relaxin receptor (LGR7) [2]): 18500 and 18200
- Fluorescence reading (luciferase assay) at 0.00035 uM (relaxin receptor (LGR7) [2]): 21500 and 19100
- Fluorescence reading (luciferase assay) at 0.001051 uM (relaxin receptor (LGR7) [2]): 29000 and 26800
- Fluorescence reading (luciferase assay) at 0.003153 uM (relaxin receptor (LGR7) [2]): 23300 and 23700
Substance: Relaxin-2 (ligand)

- EC50 (Baf3-LepR cell proliferation, AlamarBlue) (Leptin receptor): 352 pM
- Fluorescent reading (AlamarBlue) at 0.01 pg/ml (6.25E-08 nM) (Leptin receptor): 2500 and 2520
- Fluorescent reading (AlamarBlue) at 0.1 pg/ml (Leptin receptor): 1700
- Fluorescent reading (AlamarBlue) at 0.1 pg/ml (6.25E-07 nM) (Leptin receptor): 2010
- Fluorescent reading (AlamarBlue) at 10 pg/ml (Leptin receptor): 924
- Fluorescent reading (AlamarBlue) at 10 pg/ml (6.25E-05 nM) (Leptin receptor): 2110
- Fluorescent reading (AlamarBlue) at 100 pg/ml (6.25E-03 nM) (Leptin receptor): 725 and 1740
- Fluorescent reading (AlamarBlue) at 1000 pg/ml (0.0625 nM) (Leptin receptor): 7000 and 5190
- Fluorescent reading (AlamarBlue) at 10000 pg/ml (0.625 nM) (Leptin receptor): 26000 and 16500
- Fluorescent reading (AlamarBlue) at 100000 pg/ml (6.25 nM) (Leptin receptor): 29000 and 15300
- Fluorescent reading (AlamarBlue) at 1000000 pg/ml (62.5 nM) (Leptin receptor): 33500 and 26400
- Fluorescent reading (AlamarBlue) at 10000000 pg/ml (6250 nM) (Leptin receptor): 38300 and 32400
Substance: human leptin (R&D) (from UniProt P41159 22-167) (ligand)
